We go through five substances from patent publication US20260265403A1.

pKd: −log10 of the molar value.

Assay [1] addresses human CD24 on cells (human) (UniProt P25063). Description: flow cytometry (GMFI), MCF-7 cells; EC50 table under the graphs.
Assay [2] shares this target. Description: flow cytometry (GMFI), SKOV3 cells; EC50 table under the graphs [Cont'd) B].
In a further assay the target is Human CD24 (human) (UniProt P25063). Description: Biacore (SPR); antibody as ligand, human CD24 as analyte. A general note: In SPR one partner is held on a chip, and binding of the other changes the refractive index at the surface.
A further assay has as its target CD24-his-GST(Ecoli). Description: ELISA, CD24-his-GST(Ecoli) [Cont'd) B]. Background: ELISA stands for enzyme-linked immunosorbent assay.
For assay [3], the target named is human CD24 on cells (human) (UniProt P25063). Description: flow cytometry (GMFI), MCF-7 cells. (In general: A flow cytometer gives signals particle by particle.)
Assay [4] shares this target. Description: flow cytometry (GMFI), MC38-hCD24 cells [Cont'd) C].
The target in assay [5] is CD24-his protein (human) (UniProt P25063). Description: Siglec10-PE competition assay (gMFI on the sheet); legend: Siglec-10-his-Biotin mixed with the antibody, plate coated with CD24 protein.
For assay [6] the target is unchanged. Description: ELISA, CD24-his (HEK 293), unit taken from the concentration axis.
Assay [7] has as its target human CD24 on cells (human) (UniProt P25063). Description: flow cytometry (GMFI), MCF-7 cells [Cont'd) C].
Assay [8] shares this target. Description: flow cytometry (GMFI), NALM6 cells.
Assay [9] has as its target CD24-his protein (human) (UniProt P25063). Description: ELISA, CD24-his(HEK 293) [Cont'd) B].
Assay [10] addresses human CD24 on cells (human) (UniProt P25063). Description: flow cytometry (GMFI), A549 cells.
For assay [11] the target is unchanged. Description: flow cytometry (GMFI), OVCAR3 cells.
The target is the same in assay [12]. Description: cell-based or functional assay.
Assay [13] has the same target. Description: flow cytometry (MFI), MCF-7 cells [Cont'd) B].
Assay [14] shares this target. Description: flow cytometry (MFI), NALM6 cells [Cont'd) B].
For assay [15] the target is unchanged.

Sequence of human CD24 on cells (human) (P25063 27-59): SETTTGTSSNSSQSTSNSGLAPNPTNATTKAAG
Sequence of CD24-his protein (human) (P25063 27-59 limits assumed): as the sequence (P25063 27-59) above
Sequence of Human CD24 (human) (P25063 27-59 limits assumed): as the sequence (P25063 27-59) above
Sequence of CD24-his-GST(Ecoli) (chain, as listed by the source limits assumed): as the sequence (P25063 27-59) above

Usually EC50 stands for the concentration at which the effect is half-maximal. A lower EC50 goes with a more potent agent. With human isotype IgG4 (antibody), the EC50 was found to be 12.9 µg/mL in assay [1] and 3.48 µg/mL in assay [2].

What is called pKd is the negative decadic logarithm of the Kd, by convention in mol/L. By koff is commonly meant the first-order rate constant of dissociation. A higher koff goes with fast dissociation. As a reminder, the kon is the rate constant with which the complex forms. What is called EC50 (read off the curve) is the concentration at which the effect is half-maximal. A higher EC50 (read off the curve) goes with a less potent agent. GB7011 (antibody) showed a pKd with Human CD24 (human) of 7.91. The koff in the assay with Human CD24 (human) was determined as 0.0104 s⁻¹. The substance also returned a kon with Human CD24 (human) of 839000 M⁻¹ s⁻¹. Also, the concentration for a half-maximal effect (EC50 (read off the curve)) was determined as 0.02 µg/mL with CD24-his-GST(Ecoli); 0.3 µg/mL in assay [3]; 0.3 µg/mL in [4]; 0.4 µg/mL in [7]; 0.6 µg/mL in assay [8]; 0.02 µg/mL with CD24-his protein (human) [9]. Besides, the figures for the EC50 (read off the curve) in assay [10] and in assay [11] were 0.3 µg/mL and 0.7 µg/mL, respectively. For the same substance, in the assay with CD24-his protein (human) [5], the IC50 (read off the curve) was determined as 2 µg/mL. For the same substance, the EC50 with CD24-his protein (human) [6] turned out to be 0.0202 µg/mL.

In the case of IMM47H (antibody), the pKd with Human CD24 (human) is 6.78. The EC50 (read off the curve) stood at 0.5 µg/mL in [3]; 0.3 µg/mL in [7]; 0.3 µg/mL in assay [8]; 0.03 µg/mL with CD24-his protein (human) [9]; 0.3 µg/mL in assay [10]; 0.4 µg/mL in assay [11]. The EC50 with CD24-his protein (human) [6] is 0.0277 µg/mL; in [1] it was 0.53 µg/mL; in [2], 0.38 µg/mL.

In assay [12], NS-17(SWA11) (antibody) displayed an EC50 of Phagocytosis assay, IgG1, Kappa; MCF-7 of 0.02 µg/mL; an EC50 of Phagocytosis assay, IgG1, Kappa; NALM6 of 1.01 µg/mL; an EC50 of Phagocytosis assay, IgG1, Kappa; OVCAR3 of 0.91 µg/mL; an EC50 of Phagocytosis assay, IgG4, Kappa; MCF-7 of 0.09 µg/mL. This substance registered an EC50 of Phagocytosis assay, IgG4, Kappa; NALM6 in assay [12] of 0.18 µg/mL.

The substance anti-CD24 ab(SN3) (antibody) came in with a concentration for a half-maximal effect (EC50 (read off the curve)) in assay [13] of 0.1 µg/mL. Besides, the EC50 (read off the curve) in assay [14] came to 0.09 µg/mL. In assay [15], this substance displayed an EC50 (read off the curve), phagocytosis of NALM6 cells of 0.3 µg/mL and an EC50 (read off the curve), phagocytosis of OVCAR3 cells of 0.7 µg/mL.
